The term Kd denotes the concentration at which binding is half-saturated.

B1: target 1 MT 5'PFS GUU 3'PFS UCG (mixed)
RNA 1: CACCCGUGCAAAAAUGCAGGGGUCUAAAACUGAGCGGAUAACCUCUCUAUGG
RNA 2: GGGAAUGGAUCCACAUCUACGAAUUCGUUCCAUAGAGAGGUUAUCCGCUCAUCGAGAUCGGAAGAGCACACGU
B2: target 1 MT 5'PFS CUG 3'PFS UCC (mixed)
RNA 1: B1 RNA 1
RNA 2: B1 RNA 2 with G27C, U29G, G54C
B3: target 1 MT 5'PFS GCG 3'PFS UAU (mixed)
RNA 1: B1 RNA 1
RNA 2: B1 RNA 2 with U28C, U29G, C53A, G54U
B4: target 1 MT 5'PFS GAA 3'PFS AGA (mixed)
RNA 1: B1 RNA 1
RNA 2: B1 RNA 2 with U28A, U29A, U52A, C53G, G54A
B5: target 1 MT 5'PFS GAA 3'PFS UAC (mixed)
RNA 1: B1 RNA 1
RNA 2: B1 RNA 2 with U28A, U29A, C53A, G54C
B6: target 1 MT 5'PFS UAU 3'PFS UCU (mixed)
RNA 1: B1 RNA 1
RNA 2: B1 RNA 2 with G27U, U28A, G54U
B7: target 1 MT 5'PFS GUU 3'PFS AAG (mixed)
RNA 1: B1 RNA 1
RNA 2: B1 RNA 2 with U52A, C53A
B8: target 1 MT 5'PFS GUG 3'PFS GUC (mixed)
RNA 1: B1 RNA 1
RNA 2: B1 RNA 2 with U29G, U52G, C53U, G54C
B9: target 1 MT 5'PFS GUU 3'PFS AAA (mixed)
RNA 1: B1 RNA 1
RNA 2: B1 RNA 2 with U52A, C53A, G54A
B10: target 1 MT 5'PFS GAA 3'PFS UAU (mixed)
RNA 1: B1 RNA 1
RNA 2: B1 RNA 2 with U28A, U29A, C53A, G54U
B11: target 1 MT 5'PFS GAA 3'PFS AGG (mixed)
RNA 1: B1 RNA 1
RNA 2: B1 RNA 2 with U28A, U29A, U52A, C53G
B12: target 1 MT 5'PFS GGC 3'PFS CGU (mixed)
RNA 1: B1 RNA 1
RNA 2: B1 RNA 2 with U28G, U29C, U52C, C53G, G54U
B13: target 1 MT 5'PFS GCG 3'PFS UAA (mixed)
RNA 1: B1 RNA 1
RNA 2: B1 RNA 2 with U28C, U29G, C53A, G54A
B14: target 1 MT 5'PFS GUU 3'PFS UCA (mixed)
RNA 1: B1 RNA 1
RNA 2: B1 RNA 2 with G54A
B15: target 1 MT 5'PFS UAG 3'PFS CAU (mixed)
RNA 1: B1 RNA 1
RNA 2: B1 RNA 2 with G27U, U28A, U29G, U52C, C53A, G54U
B16: target 1 MT 5'PFS AAU 3'PFS ACG (mixed)
RNA 1: B1 RNA 1
RNA 2: B1 RNA 2 with G27A, U28A, U52A
B17: target 1 MT 5'PFS GUG 3'PFS GUG (mixed)
RNA 1: B1 RNA 1
RNA 2: B1 RNA 2 with U29G, U52G, C53U
B18: target 1 MT 5'PFS CUG 3'PFS UCU (mixed)
RNA 1: B1 RNA 1
RNA 2: B1 RNA 2 with G27C, U29G, G54U
B19: target 1 MT 5'PFS ACC 3'PFS CCG (mixed)
RNA 1: B1 RNA 1
RNA 2: B1 RNA 2 with G27A, U28C, U29C, U52C
B20: target 1 MT 5'PFS GUU 3'PFS UCC (mixed)
RNA 1: B1 RNA 1
RNA 2: B1 RNA 2 with G54C
B21: target 1 MT 5'PFS AAU 3'PFS ACA (mixed)
RNA 1: B1 RNA 1
RNA 2: B1 RNA 2 with G27A, U28A, U52A, G54A
B22: target 1 G5A,C6A (mixed)
RNA 1: B1 RNA 1
RNA 2: B1 RNA 2 with U29A, C46A, G47A, U52C
B23: target 1 insC 3' of 11,insA 3' of 5 (mixed)
RNA 1: B1 RNA 1
RNA 2: GGGAAUGGAUCCACAUCUACGAAUUCGUACCAUAGAGAGGUCUAUCCGACUCACCGAGAUCGGAAGAGCACACGU
B24: target 1 MT 5'PFS GCG 3'PFS UAG (mixed)
RNA 1: B1 RNA 1
RNA 2: B1 RNA 2 with U28C, U29G, C53A
B25: target 1 MT 5'PFS GUU 3'PFS UCU (mixed)
RNA 1: B1 RNA 1
RNA 2: B1 RNA 2 with G54U
B26: target 1 MT 5'PFS UAG 3'PFS CAC (mixed)
RNA 1: B1 RNA 1
RNA 2: B1 RNA 2 with G27U, U28A, U29G, U52C, C53A, G54C
B27: target 1 MT 5'PFS ACG 3'PFS UGA (mixed)
RNA 1: B1 RNA 1
RNA 2: B1 RNA 2 with G27A, U28C, U29G, C53G, G54A
B28: target 1 MT 5'PFS CCG 3'PFS AGA (mixed)
RNA 1: B1 RNA 1
RNA 2: B1 RNA 2 with G27C, U28C, U29G, U52A, C53G, G54A
B29: target 1 U8C,U11G (mixed)
RNA 1: B1 RNA 1
RNA 2: B1 RNA 2 with U29A, U41G, U44C, U52C
B30: target 1 MT 5'PFS CCG 3'PFS AGU (mixed)
RNA 1: B1 RNA 1
RNA 2: B1 RNA 2 with G27C, U28C, U29G, U52A, C53G, G54U
B31: target 1 MT 5'PFS GCG 3'PFS UAC (mixed)
RNA 1: B1 RNA 1
RNA 2: B1 RNA 2 with U28C, U29G, C53A, G54C
B32: target 1 MT 5'PFS GUA 3'PFS CUU (mixed)
RNA 1: B1 RNA 1
RNA 2: B1 RNA 2 with U29A, U52C, C53U, G54U
B33: target 1 insU 3' of 12,insA 3' of 7 (mixed)
RNA 1: B1 RNA 1
RNA 2: B23 RNA 2 with C42U, C47A, G48C, A49G
B34: target 1 MT 5'PFS GAA 3'PFS UAA (mixed)
RNA 1: B1 RNA 1
RNA 2: B1 RNA 2 with U28A, U29A, C53A, G54A
B35: target 1 MT 5'PFS UAG 3'PFS CAA (mixed)
RNA 1: B1 RNA 1
RNA 2: B1 RNA 2 with G27U, U28A, U29G, U52C, C53A, G54A
B36: target 1 MT 5'PFS ACG 3'PFS UGU (mixed)
RNA 1: B1 RNA 1
RNA 2: B1 RNA 2 with G27A, U28C, U29G, C53G, G54U
B37: target 1 MT 5'PFS UAG 3'PFS CAG (mixed)
RNA 1: B1 RNA 1
RNA 2: B1 RNA 2 with G27U, U28A, U29G, U52C, C53A

Changes are numbered by the printed parent chain. In names and notes the source's numbering stands.

The target of this data set is T1, EsCas13d, nuclease-dead (Eubacterium siraeum, UniProt B0MS50, R295A;H300A;R849A;H854A).
T1 sequence: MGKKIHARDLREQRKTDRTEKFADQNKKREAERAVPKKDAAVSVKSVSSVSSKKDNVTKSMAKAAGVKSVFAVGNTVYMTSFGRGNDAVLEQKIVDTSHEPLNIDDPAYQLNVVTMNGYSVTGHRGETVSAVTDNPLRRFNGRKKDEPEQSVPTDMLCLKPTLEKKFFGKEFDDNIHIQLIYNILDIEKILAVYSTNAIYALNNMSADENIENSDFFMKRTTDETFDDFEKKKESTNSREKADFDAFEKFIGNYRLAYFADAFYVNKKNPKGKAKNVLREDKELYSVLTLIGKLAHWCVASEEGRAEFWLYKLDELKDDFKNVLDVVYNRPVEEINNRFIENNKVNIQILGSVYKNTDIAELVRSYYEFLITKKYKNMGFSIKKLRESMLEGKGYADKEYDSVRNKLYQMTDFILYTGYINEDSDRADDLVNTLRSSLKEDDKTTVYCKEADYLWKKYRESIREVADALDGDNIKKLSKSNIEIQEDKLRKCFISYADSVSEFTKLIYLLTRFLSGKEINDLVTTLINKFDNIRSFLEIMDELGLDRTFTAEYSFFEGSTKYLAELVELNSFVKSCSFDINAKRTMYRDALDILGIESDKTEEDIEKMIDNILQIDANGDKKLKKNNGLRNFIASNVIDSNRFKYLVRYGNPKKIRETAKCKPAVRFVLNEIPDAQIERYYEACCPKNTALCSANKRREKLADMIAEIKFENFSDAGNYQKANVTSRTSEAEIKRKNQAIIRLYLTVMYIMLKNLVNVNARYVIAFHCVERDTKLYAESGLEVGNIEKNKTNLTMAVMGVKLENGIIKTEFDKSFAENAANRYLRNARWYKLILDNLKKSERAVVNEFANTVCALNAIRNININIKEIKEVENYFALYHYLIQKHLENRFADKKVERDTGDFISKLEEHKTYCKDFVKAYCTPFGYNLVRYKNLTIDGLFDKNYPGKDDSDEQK
The data set is described as follows: crRNA (strand 1, pre-loaded); Mg2+; 40 mM Tris-HCl pH 7.5, 150 mM NaCl, 6 mM MgCl2, 1 mM DTT, 0.1% Tween-20, 0.2 mg/ml BSA; 25 C; 10 min per concentration, then washed. To be noted: tags: His6-TwinStrep-SUMO cleaved; N-terminal SNAP kept (SNAP-Surface 488); label: 3' end held by stalled T7 RNA polymerase.
The molecule B1 yielded a Kd of 18.5 ± 2.7 nM.

As for B2, the Kd is 4.75 ± 1.1 nM.

As to B3, binding was characterised by a dissociation constant (Kd) of 12.2 ± 2.95 nM.

In turn, B4 yielded an equilibrium dissociation constant (Kd) of 62 ± 21.5 nM.

B5: the Kd turned out to be 40 ± 11 nM.

Molecule B6 registered a dissociation constant (Kd) of 32 ± 6.5 nM.

Regarding B7, the Kd turned out to be 37.5 ± 8.5 nM.

Regarding B8, the affinity, expressed as Kd, was 17 ± 2.6 nM.

In turn, B9 came in with a Kd of 46.5 ± 13.5 nM.

The molecule B10 displayed a Kd of 27.5 ± 6 nM.

As for B11, binding was characterised by a dissociation constant (Kd) of 81 ± 34 nM.

Take B12: the Kd came out at 10.7 ± 1.75 nM.

In the case of B13, the equilibrium dissociation constant (Kd) was determined as 10.6 ± 1.6 nM.

B14 gave a Kd of 15.6 ± 2.1 nM.

As to B15, the dissociation constant Kd was determined as 65 ± 21 nM.

B16 had a Kd of 47 ± 13 nM.

For B17, the Kd was determined as 8.9 ± 0.55 nM.

As for B18, the Kd came out at 3.55 ± 0.8 nM.

The molecule B19 yielded an equilibrium dissociation constant (Kd) of approximately 18.5 nM.

Take B20: the Kd came out at 14.8 ± 3.65 nM.

For B21, the Kd is approximately 32 nM.

Regarding B22, the affinity, expressed as Kd, was 5.75 ± 0.22 nM.

Regarding B23, the equilibrium dissociation constant (Kd) stood at 7.9 ± 0.8 nM.

In turn, B24 had a Kd of 17.5 ± 4 nM.

The molecule B25 showed a Kd of 12.7 ± 1.4 nM.

B26 registered a dissociation constant (Kd) of approximately 43 nM.

In turn, B27 showed a Kd of 20.5 ± 7.5 nM.

As to B28, the Kd was found to be 4.45 ± 1.5 nM.

With B29, binding was put at a Kd of 27 ± 2.5 nM.

Consider B30, for which binding was characterised by a dissociation constant (Kd) of 10 ± 4.5 nM.

In turn, B31 returned a dissociation constant Kd of 13.2 ± 2.3 nM.

B32 registered a Kd of 8.52 ± 0.595 nM.

Take B33: the equilibrium dissociation constant (Kd) came to 5.36 ± 0.2 nM.

B34: binding was put at a Kd of 23 ± 7.5 nM.

Consider B35, for which the Kd worked out at 51 ± 11 nM.

In turn, B36 showed a dissociation constant (Kd) of approximately 74.5 nM.

In turn, B37 returned a dissociation constant (Kd) of 42.5 ± 13 nM.

The record behind these values is paper PMC10786891, “Massively parallel profiling of RNA-targeting CRISPR-Cas13d”.
